± gives the standard error. For some assays here: Variants at the floor of the assay were thinned out.
B1: glmS ribozyme (parent)
chain: AUAAAAGCGCCAGAACUACAGAAAUGUAGUUGACGAGGAGGAGGUUUAUCGAAUUUUCGGCGGAUGCCUCCAAA

Tests used:
Settings in all cases: with glucosamine-6-phosphate
glucosamine-6-phosphate [1] = variants of: B1; experiment: kcat; higher = faster cleavage; RNA array
How it was run: (§1)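 Using a hybridised Cy3 probe at 37 °C, barcoded ribozyme variants transcribed in situ by E. coli RNA polymerase on sequenced MiSeq chips were monitored across tiles imaged over ~14 h. The flow contained glucosamine-6-phosphate from 40 μM to 10 mM in HEPES/KCl/Mg(OAc)2 buffer. Signals were normalised to baseline and to non-cleaving reference variants before per-tile medians were fit to one- or two-exponential decays to yield kobs. Weighted Michaelis–Menten fits across concentrations gave kcat and KM.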

glucosamine-6-phosphate [2] = variants of: B1; experiment: self-cleavage kobs at 160 uM GlcN6P; higher = faster cleavage; RNA array
How it was run: as §1

glucosamine-6-phosphate [3] = variants of: B1; experiment: self-cleavage kobs at 10000 uM GlcN6P; higher = faster cleavage; RNA array
How it was run: as §1

glucosamine-6-phosphate [4] = variants of: B1; experiment: KM; higher = weaker cofactor use; RNA array
How it was run: as §1

glucosamine-6-phosphate [5] = variants of: B1; experiment: self-cleavage kobs at 640 uM GlcN6P; higher = faster cleavage; RNA array
How it was run: as §1

glucosamine-6-phosphate [6] = variants of: B1; experiment: self-cleavage kobs at 2500 uM GlcN6P; higher = faster cleavage; RNA array
How it was run: as §1

glucosamine-6-phosphate [7] = variants of: B1; experiment: self-cleavage kobs at 40 uM GlcN6P; higher = faster cleavage; RNA array
How it was run: as §1

Row | Variant | kcat (glucosamine-6-phosphate [1]) [s⁻¹] | self-cleavage kobs at 160 uM GlcN6P (glucosamine-6-phosphate [2]) [s⁻¹] | self-cleavage kobs at 10000 uM GlcN6P (glucosamine-6-phosphate [3]) [s⁻¹] | KM (glucosamine-6-phosphate [4]) [µM] | self-cleavage kobs at 640 uM GlcN6P (glucosamine-6-phosphate [5]) [s⁻¹] | self-cleavage kobs at 2500 uM GlcN6P (glucosamine-6-phosphate [6]) [s⁻¹] | self-cleavage kobs at 40 uM GlcN6P (glucosamine-6-phosphate [7]) [s⁻¹]
1 | A33C G59U | < 1e-05 | < 1e-05 | < 1e-05 |  |  |  | 
2 | A33U U56A | 3.49e-05 ± 1.6e-05 |  |  |  |  |  | 
3 | A33U U56G | 3.36e-05 ± 2.8e-06 |  |  | 3370 ± 930 |  |  | 
4 | U31C U56C | 0.00169 ± 0.00055 | 9.03e-05 ± 1.1e-05 | 0.00171 ± 0.00034 | 2910 ± 1200 | 0.000331 ± 5.8e-05 | 0.000644 ± 0.00011 | 
5 | C34G A52G | < 1e-05 |  |  |  |  | < 1e-05 | 
6 | G32U G41U | 0.000152 ± 3.7e-06 |  | 0.00013 ± 1e-05 | 1640 ± 170 | 4.19e-05 ± 1.5e-05 | 9.36e-05 ± 1.9e-05 | 
7 | G32U U57C | 4.06e-05 ± 2.6e-06 |  | 3.26e-05 ± 8.4e-06 | 2420 ± 550 |  |  | 
8 | G32C C50U | < 1e-05 |  | < 1e-05 |  | < 1e-05 |  | 
9 | A33G C50G | 0.000122 ± 3.3e-05 | 7.8e-05 ± 1.6e-05 |  |  | 0.000161 ± 2.3e-05 | 0.000102 ± 1.6e-05 | 
10 | U31G U47G | 0.00226 ± 0.00055 | 0.000127 ± 3.3e-05 | 0.00176 ± 0.00028 | 1880 ± 720 | 0.000663 ± 0.00011 | 0.0016 ± 0.00031 | 7.25e-05 ± 1.9e-05
11 | A33C U46G | 9.24e-05 ± 1.2e-05 |  | 7.98e-05 ± 1.3e-05 | 1050 ± 490 | 2.94e-05 ± 1.3e-05 | 8.65e-05 ± 2.1e-05 | 
12 | A33U G40U | 5.28e-05 ± 4e-06 | < 1e-05 | 1.68e-05 ± 7.9e-06 |  |  |  | < 1e-05
13 | G32C A52U | < 1e-05 |  |  |  |  |  | < 1e-05
14 | G32A A42G | 0.00505 ± 0.0014 | 0.000193 ± 3.2e-05 | 0.00357 ± 0.00047 | 3140 ± 1200 | 0.00133 ± 0.00025 | 0.00281 ± 0.00043 | 7.49e-05 ± 1.3e-05
15 | G32A C61U | < 1e-05 | < 1e-05 |  |  | < 1e-05 |  | 
16 | U31C G41C | 4.88e-05 ± 2e-05 |  |  |  |  |  | 
17 | G32U G51A | < 1e-05 |  |  |  |  |  | < 1e-05
18 | U31C G32C | 0.000493 ± 0.00011 |  | 0.000344 ± 3.5e-05 | 4480 ± 2100 |  | 0.00017 ± 2.6e-05 | 

Row | Variant | kcat (glucosamine-6-phosphate [1]) [s⁻¹] | self-cleavage kobs at 160 uM GlcN6P (glucosamine-6-phosphate [2]) [s⁻¹] | self-cleavage kobs at 10000 uM GlcN6P (glucosamine-6-phosphate [3]) [s⁻¹] | KM (glucosamine-6-phosphate [4]) [µM] | self-cleavage kobs at 640 uM GlcN6P (glucosamine-6-phosphate [5]) [s⁻¹] | self-cleavage kobs at 2500 uM GlcN6P (glucosamine-6-phosphate [6]) [s⁻¹] | self-cleavage kobs at 40 uM GlcN6P (glucosamine-6-phosphate [7]) [s⁻¹]
19 | U31G U54C | 0.014 ± 0.0061 | 0.000516 ± 0.00013 | 0.0136 ± 0.0038 |  | 0.00289 ± 0.00053 | 0.00559 ± 0.00098 | 0.000233 ± 4e-05
20 | A33C C61A | < 1e-05 |  | < 1e-05 |  |  |  | 
21 | U31G A52U | 8.72e-05 ± 5.4e-06 |  | 7.41e-05 ± 1.1e-05 | 1520 ± 320 |  | 5.7e-05 ± 9.5e-06 | < 1e-05
22 | G32A A39U | 0.00242 ± 0.00045 | 6.05e-05 ± 1.1e-05 | 0.00144 ± 0.00017 | 6090 ± 1600 | 0.000213 ± 2.9e-05 | 0.000855 ± 0.0001 | 
23 | G32A A39G | 0.00635 ± 0.0016 | 0.000271 ± 7.2e-05 | 0.00403 ± 0.00055 | 6190 ± 2000 | 0.000619 ± 9.3e-05 | 0.00165 ± 0.0003 | 3.65e-05 ± 8.1e-06
24 | C34A U45A G51U | 0.000482 ± 0.00015 |  | 0.00041 ± 0.00016 |  | 0.000198 ± 5.3e-05 | 0.000272 ± 0.0001 | 
25 | G32A C68U | 0.0003 ± 1.7e-05 |  | 0.000251 ± 2e-05 | 2170 ± 300 | 7.37e-05 ± 1.1e-05 | 0.000149 ± 1.9e-05 | 
26 | G32A U47C | 0.000343 ± 5.5e-05 |  | 0.000258 ± 4.4e-05 | 2450 ± 760 | 7.19e-05 ± 1.5e-05 | 0.000185 ± 2.3e-05 | 
27 | U31C U47G | 0.000887 ± 0.00023 | 8.85e-05 ± 1.5e-05 | 0.00102 ± 0.00013 | 1440 ± 640 | 0.000292 ± 4.5e-05 | 0.000426 ± 7e-05 | 3.36e-05 ± 9.1e-06
28 | G32U U47G | 0.000502 ± 8.1e-05 |  | 0.000336 ± 4.6e-05 | 4700 ± 1400 | 5.12e-05 ± 1.7e-05 | 0.000189 ± 3.3e-05 | 
29 | G32U U47C | 0.000177 ± 4.1e-05 |  | 9.94e-05 ± 1.4e-05 | 7840 ± 3400 |  | 4.27e-05 ± 1.2e-05 | 
30 | A33U U46G | 1.23e-05 ± 2.7e-06 | < 1e-05 |  |  |  |  | < 1e-05
31 | G32U A39U C67G | 0.000203 ± 2.3e-05 |  | 0.00014 ± 2e-05 | 4340 ± 1100 |  | 7.96e-05 ± 1.7e-05 | < 1e-05
32 | A33U C71G | 1.4e-05 ± 2.4e-06 |  | 1.47e-05 ± 7.1e-06 |  |  |  | 
33 | U31C U54C | 0.00689 ± 0.0027 | 0.000254 ± 4.6e-05 | 0.00579 ± 0.00087 |  | 0.00134 ± 0.00024 | 0.00166 ± 0.00057 | 0.000101 ± 1.8e-05
34 | U31C U54G | 0.00413 ± 0.0012 | 0.000283 ± 4.9e-05 | 0.00388 ± 0.00065 | 1770 ± 710 | 0.00116 ± 0.00017 | 0.00211 ± 0.0004 | 0.000143 ± 2.5e-05
35 | U31C G59U C68A | 3.76e-05 ± 1.6e-05 |  |  |  |  |  | 
36 | U31G A36C C70G | 7.04e-05 ± 3.2e-05 |  |  |  | 0.000105 ± 4.3e-05 |  | 
